Laboratory results published in PMC6234840 (Nature, 2018).

Biological target: GST-eIF3h (human, UniProt O15372 1-352)
Experiment: pull-down

GST-eIF3h, sequence (O15372 whole entry): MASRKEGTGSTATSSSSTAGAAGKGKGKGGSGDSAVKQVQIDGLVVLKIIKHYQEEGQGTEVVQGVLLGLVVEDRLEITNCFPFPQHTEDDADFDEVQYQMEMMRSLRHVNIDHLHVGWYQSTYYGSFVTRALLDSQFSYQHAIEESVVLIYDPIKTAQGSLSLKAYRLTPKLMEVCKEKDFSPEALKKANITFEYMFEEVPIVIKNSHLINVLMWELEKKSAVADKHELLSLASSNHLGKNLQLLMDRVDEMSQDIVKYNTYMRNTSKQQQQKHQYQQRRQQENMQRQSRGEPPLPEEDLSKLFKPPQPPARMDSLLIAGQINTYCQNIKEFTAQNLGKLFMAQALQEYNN

B1: His-METTL3 1-200 amino acid fragment (domain or fragment)
chain: MSDTWSSIQAHKKQLDSLRERLQRRRKQDSGHLDLRNPEAALSPTFRSDSPVPTAPTSGGPKPSTASAVPELATDPELEKKLLHHLSDLALTLPTDAVSICLAISTPDAPATQDGVESLLQKFAAQELIEVKRGLLQDDAHPTLVTYADHSKLSAMMGAVAEKKGPGEVAGTVTGQKRRAEQDSTTVAAFASSLVSGLNS
binding result: binds
